Source: the supplement of paper PMC10567573

B1: RSPH3 (parent)
chain: KAASLARNLAKRRRTYLGGAAGRS
B2: HDAC6 (parent)
chain: QYMNEGELRVLADTYDSVYLHPNS

Variants of: B1
Assay: protein stability index of a GFP-peptide fusion (GPS, HEK-293T) (PSI 1-6); higher = more stable
Settings: c terminus: a fixed tail appended
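Also: lentivirally expressed fusions sorted by FACS into six bins by GFP to DsRed ratio, PSI derived from sequencing read proportions per bin multiplied by bin number.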

Variant	protein stability index
KAASLARNLAKRRCTYLGGAAGRS [R14C]	2.96
KAASLARNLAKRRSTYLGGAAGRS [R14S]	3.11
KAASLARNLAKRRLTYLGGAAGRS [R14L]	1.84
KAASLARNLAKRRDTYLGGAAGRS [R14D]	1.41
KAASLARNLAKRRNTYLGGAAGRS [R14N]	1.99
KAASLARNLAKRRETYLGGAAGRS [R14E]	2.66
KAASLARNLAKRRFTYLGGAAGRS [R14F]	1.02
KAASLARNLAKRFRTYLGGAAGRS [R13F]	3.92
KAASLARNLAKRWRTYLGGAAGRS [R13W]	2.91
KAASLARNLAKRTRTYLGGAAGRS [R13T]	2.4
KAASLARNLAKRNRTYLGGAAGRS [R13N]	3.36
KAASLARNLAKRVRTYLGGAAGRS [R13V]	1.92
KAASLARNLAKRDRTYLGGAAGRS [R13D]	3.58
KAASLARNLAKRSRTYLGGAAGRS [R13S]	2.52
KAASLARNLAKRGRTYLGGAAGRS [R13G]	2.11
KAASLARNLAKRARTYLGGAAGRS [R13A]	1.51
KAASLARNLAKRMRTYLGGAAGRS [R13M]	3.77
KAYSLARNLAKRRRTYLGGAAGRS [A3Y]	1.74
KAGSLARNLAKRRRTYLGGAAGRS [A3G]	3.72
KAKSLARNLAKRRRTYLGGAAGRS [A3K]	2.68

Variant	protein stability index
KAQSLARNLAKRRRTYLGGAAGRS [A3Q]	3.71
KAFSLARNLAKRRRTYLGGAAGRS [A3F]	1.01
KADSLARNLAKRRRTYLGGAAGRS [A3D]	3.02
KANSLARNLAKRRRTYLGGAAGRS [A3N]	2.69
KAHSLARNLAKRRRTYLGGAAGRS [A3H]	3.48
KAESLARNLAKRRRTYLGGAAGRS [A3E]	3.16
KAPSLARNLAKRRRTYLGGAAGRS [A3P]	3.96
KARSLARNLAKRRRTYLGGAAGRS [A3R]	3.01
KAASLGRNLAKRRRTYLGGAAGRS [A6G]	3.27
KAASLRRNLAKRRRTYLGGAAGRS [A6R]	2.56
KAASLKRNLAKRRRTYLGGAAGRS [A6K]	2.4
KAASLPRNLAKRRRTYLGGAAGRS [A6P]	3.94
KAASLMRNLAKRRRTYLGGAAGRS [A6M]	2.52
KAASLFRNLAKRRRTYLGGAAGRS [A6F]	2.23
KAASLHRNLAKRRRTYLGGAAGRS [A6H]	2.2
KAASLSRNLAKRRRTYLGGAAGRS [A6S]	3.07
KAASLWRNLAKRRRTYLGGAAGRS [A6W]	1.58
KAASLYRNLAKRRRTYLGGAAGRS [A6Y]	1.94
KAASLCRNLAKRRRTYLGGAAGRS [A6C]	1.06

Variants of: B2
Assay: as above
Settings: c terminus: a fixed tail appended

Variant	protein stability index
QYMNEGELRVLADTYDSVYLHPNM [S24M]	1.57
QYMNEGELRVLADTYDSVYLHPNH [S24H]	1.61
QYMNEGELRVLADTYDSVYLHPNF [S24F]	1.58
QYMNEGELRVLADTYDSVYLHPNN [S24N]	2.04
QYMNEGELRVLADTYDSVYLHPNY [S24Y]	1.41
QYMNEGELRVLADTYDSVYLHPNW [S24W]	1.24
QYMNEGELRVLADTYDSVYLHPNV [S24V]	1.74
QYMNEGELRVLADTYDSVYLHPNC [S24C]	1.64
QYMNEGELRVLADTYDSVYLHPNG [S24G]	2.24
QYMNEGELRVLADTYDSVYLHPNT [S24T]	1.52
QYMNEGELRVLADTYDSVYLHPNR [S24R]	2.4
QYMNEGELRVLADTYDSVYLHPNL [S24L]	1.52
QYMNEGELRVLADTYDSVYLHPNI [S24I]	3.21
QYMNEGELRVLADTYDSVYLHPNQ [S24Q]	3.76
QYMNEGELRVLADTYDSVYLHPNE [S24E]	1.73
QYMNEGELRVLADTYDSVYLHPNP [S24P]	1.91
QYMNEGELRVLADTYDSVYLHPND [S24D]	2.58
QYMNEGELRVLADTYDSVYLHPNA [S24A]	1.44
QYMNEGELRVLADTYDSVYLHPNK [S24K]	1.46
QYMNEGELRVLADTYDSVYLHPPS [N23P]	1.57
QYMNEGELRVLADTYDSVYLHPTS [N23T]	2.03
QYMNEGELRVLADTYDSVYLHPYS [N23Y]	1.73
QYMNEGELRVLADTYDSVYLHPKS [N23K]	2.36
QYMNEGELRVLADTYDSVYLHPLS [N23L]	1.6
QYMNEGELRVLADTYDSVYLHPSS [N23S]	2.34
QYMNEGELRVLADTYDSVYLHPDS [N23D]	1.8
QYMNEGELRVLADTYDSVYLHPHS [N23H]	1.94
QYMNEGELRVLADTYDSVYLHPWS [N23W]	1.46

Variant	protein stability index
QYMNEGELRVLADTYDSVYLHPAS [N23A]	1.43
QYMNEGELRVLADTYDSVYLHPVS [N23V]	2.03
QYMNEGELRVLADTYDSVYLHPIS [N23I]	2.31
QYMNEGELRVLADTYDSVYLHPFS [N23F]	1.96
QYMNEGELRVLADTYDSVYLHPQS [N23Q]	1.92
QYMNEGELRVLADTYDSVYLHPCS [N23C]	1.99
QYMNEGELRVLADTYDSVYLHPRS [N23R]	2.17
QYMNEGELRVLADTYDSVYLHPMS [N23M]	1.23
QYMNEGELRVLADTYDSVYLHPES [N23E]	2.69
QYMNEGELRVLADTYDSVYLHENS [P22E]	2.13
QYMNEGELRVLADTYDSVYLHYNS [P22Y]	1.41
QYMNEGELRVLADTYDSVYLHVNS [P22V]	1.83
QYMNEGELRVLADTYDSVYLHWNS [P22W]	2.56
QYMNEGELRVLADTYDSVYLHRNS [P22R]	1.96
QYMNEGELRVLADTYDSVYLHHNS [P22H]	2.4
QYMNEGELRVLADTYDSVYLHFNS [P22F]	1.82
QYMNEGELRVLADTYDSVYLHINS [P22I]	2.08
QYMNEGELRVLADTYDSVYLHSNS [P22S]	1.68
QYMNEGELRVLADTYDSVYLHLNS [P22L]	1.3
QYMNEGELRVLADTYDSVYLHTNS [P22T]	1.66
QYMNEGELRVLADTYDSVYLHKNS [P22K]	1.96
QYMNEGELRVLADTYDSVYLHQNS [P22Q]	1.58
QYMNEGELRVLADTYDSVYLHCNS [P22C]	1.85
QYMNEGELRVLADTYDSVYLHDNS [P22D]	2.37
QYMNEGELRVLADTYDSVYLHNNS [P22N]	1.38
QYMNEGELRVLADTYDSVYLHGNS [P22G]	2.27
QYMNEGELRVLADTYDSVYLHMNS [P22M]	2.15
